Experiment [1] deals with human CTLA4 antibody containing human κ light chain subgroup 3 (Vκ3) (manufactured by R&D Systems). Nature of the experiment: ELISA; antibody immobilised (10 ug/mL), binding protein at 50 ug/mL, Anti-6-His detection, blank-subtracted. A general note: In an ELISA, binding on a coated surface is turned into a signal by an enzyme label.
Experiment [2] has as its target human PDGF R alpha antibody containing human κ light chain subgroup 3 (Vκ3) (manufactured by R&D Systems). The description is as above.
For experiment [3], the target named is Herceptin containing human κ light chain subgroup 1 (Vκ1) (manufactured by Chugai Pharmaceutical Co., Ltd.). The experiment is described as above.
Experiment [4] deals with human PCSK9 antibody containing human κ light chain subgroup 4 (Vκ4) (manufactured by R&D Systems). Described as above.
Experiment [5] addresses immunoglobulin immobilized on IgG Sepharose 6 Fast Flow (manufactured by Cytiva). Briefly: IgG Sepharose 6 Fast Flow column; linear gradient 0.1 M citrate pH 6.5 to pH 2.2; pH at the peak of the eluted binding protein.
The target of experiment [6] is human antibody (gamma globulin preparation, manufactured by The Chemo-Sero-Therapeutic Research Institute) (human). Nature of the experiment: ELISA; human gamma globulin immobilised; acid treatment 50 mM buffer pH 3.2, 25 C, 5 min; elution rate = 1 - remaining binding activity.
Experiment [7] has the same target. The description is as above. The source holds these as a separate data set.
Experiment [8] has the same target. Briefly: ELISA; human gamma globulin immobilised, alkali-untreated protein extract, Anti-6-His detection.
Experiment [9] concerns the target Herceptin containing human κ light chain subgroup 1 (Vκ1) (manufactured by Chugai Pharmaceutical Co., Ltd.). Briefly: ELISA; Herceptin immobilised, binding protein at 2 ug/mL, dissociation with 0.05 M citric acid pH 2.4 for 2 min, absorbance ratio to wells without dissociation.

Read-outs that look alike come from different tables or passages of the source.

B1: FpL_C4KR (designed binder)
chain: ETPEEPREEVTIRVNLIFADGRTQTAEFRGTFEEATAEAYRYADLLARVNGEYTADLEDGGYTINIRFAGHHHHHH
Regarding B1, the Polyclonal antibody-binding activity (abs@450 nm) in [1] came out at 0.66 abs@450 nm; in experiment [2] it was 0.59 abs@450 nm; in [3], 0.65 abs@450 nm; in experiment [4] it was 0.55 abs@450 nm. In [5], this molecule showed an Elution pH of 2.8 pH.

B2: FpL_C4KR amino acid substitution mutant Lys(Arg)22Thr (designed binder)
chain: ETPEEPREEVTIRVNLIFADGTTQTAEFRGTFEEATAEAYRYADLLARVNGEYTADLEDGGYTINIRFAGHHHHHH
With B2, the Elution pH in experiment [5] was found to be 3.2 pH.

B3: FpL_C4KR amino acid substitution mutant Lys(Arg)29Val (designed binder)
chain: ETPEEPREEVTIRVNLIFADGRTQTAEFVGTFEEATAEAYRYADLLARVNGEYTADLEDGGYTINIRFAGHHHHHH
In experiment [5], B3 gave an Elution pH of 3.1 pH.

B4: FpL_C4KR amino acid substitution mutant Lys(Arg)29Ile (designed binder)
chain: ETPEEPREEVTIRVNLIFADGRTQTAEFIGTFEEATAEAYRYADLLARVNGEYTADLEDGGYTINIRFAGHHHHHH
Turning to B4, the Elution pH in experiment [5] was found to be 3.1 pH.

B5: FpL_C4KR amino acid substitution mutant Lys(Arg)29Pro (designed binder)
chain: ETPEEPREEVTIRVNLIFADGRTQTAEFPGTFEEATAEAYRYADLLARVNGEYTADLEDGGYTINIRFAGHHHHHH
B5 returned an Elution pH in [5] of 3.2 pH.

B6: FpL_C4KR amino acid substitution mutant Lys(Arg)7Gln (designed binder)
chain: ETPEEPQEEVTIRVNLIFADGRTQTAEFRGTFEEATAEAYRYADLLARVNGEYTADLEDGGYTINIRFAGHHHHHH
In [5], B6 had an Elution pH of 3 pH.

B7: FpL_C4KR amino acid substitution mutant Lys(Arg)13Val (designed binder)
chain: ETPEEPREEVTIVVNLIFADGRTQTAEFRGTFEEATAEAYRYADLLARVNGEYTADLEDGGYTINIRFAGHHHHHH
Consider B7, for which, in experiment [5], the Elution pH came to 3.1 pH.

B8: FpL_C3KX 9a (designed binder)
chain: ETPGESAEEVTIRVNLIFADGRRQTAEFIGTFEEATAEAYAYARLLARDYGEFTADLEDGGYTINIRFVGHHHHHH
In experiment [6], B8 gave an Elution rate [%] of 70%.

B9: FpL_C3KX 9c (designed binder)
chain: ETPGESAEEVTIRVNLIFADGRRQTAEFIGTFEEATAEAYAYANLLARDYGEFTADLEDGGYTLNIRFVGHHHHHH
As to B9, the Elution rate [%] in [6] was determined as 69%.

B10: FpL_C3KX 10a (designed binder)
chain: ETPGESAEEVTIRVNLIFADGRRQTAEFIGTFEEATAEAYAYARLLAHDYGEFTADLEDGGYTLNIRFVGHHHHHH
As for B10, the Elution rate [%] in experiment [6] came to 75%.

B11: FpL_C3KX 9e (designed binder)
chain: ETPGESAEEVTIRVNLIFADGRIQTAEFIGTFEEATAEAYAYAHLLARDYGEFTADLEDGGYTLNIRFVGHHHHHH
In the case of B11, the Elution rate [%] in [6] turned out to be 68%.

B12: FpL_C3KX 9b (designed binder)
chain: ETPGESAEEVTIRVNLIFADGRRQTAEFIGTFEEATAEAYAYAHLLARDYGEFTADLEDGGYTINIRFVGHHHHHH
In turn, B12 returned an Elution rate [%] in [6] of 68%.

B13: FpL_C3KX 9d (designed binder)
chain: ETPGESAEEVTIRVNLIFADGRIQTAEFIGTFEEATAEAYAYARLLARDYGEFTADLEDGGYTLNIRFVGHHHHHH
On to B13, for which the Elution rate [%] in experiment [6] worked out at 63%.

B14: FpL_C3KX 10b (designed binder)
chain: ETPGESAEEVTIRVNLIFADGRRQTAEFIGTFEEATAEAYAYAHLLAHDYGEFTADLEDGGYTLNIRFVGHHHHHH
Regarding B14, the Elution rate [%] in [6] is 67%.

B15: FpL_C3KX 3a (designed binder)
chain: ETPEEPAEEVTIRVNLIFADGQIQTAEFIGTFEEATARAYAYANLLAREYGGYTADLEDGGYTINIRFAGHHHHHH
Turning to B15, the Polyclonal antibody-binding activity (abs@450 nm) in experiment [1] was determined as 0.21 abs@450 nm; in [2], 0.12 abs@450 nm; in experiment [3], 0.87 abs@450 nm; in [4], 0.76 abs@450 nm.

B16: FpL_C3KX 7e amino acid substitution mutant Asn15Val (designed binder)
chain: ETPGESAEEVTIRVVLIFADGRIQTAEFIGTFEEATAEAYAYANLLARDYGEFTADLEDGGYTINIRFVGHHHHHH
For the molecule B16, the Elution rate [%] in experiment [7] is 29%.

B17: FpL_C3 4f (designed binder)
chain: ETPEEPKEEVTIKVNLIFADGKIQTAEFKGTFEEATAKAYAYADLLAKEYGVYTADLEDGGYTINIKFAGHHHHHH
Consider B17, for which, in experiment [8], the Antibody-binding activity (absorbance) (absorbance (450 nm)) was found to be 0.9.

B18: FpL_C3KX 7e (designed binder)
chain: ETPGESAEEVTIRVNLIFADGRIQTAEFIGTFEEATAEAYAYANLLARDYGEFTADLEDGGYTINIRFVGHHHHHH
In the case of B18, the Elution rate [%] was found to be 26% in [7] and 46% in experiment [6].

B19: FpL_C3KX 7e amino acid substitution mutant Glu34Leu (designed binder)
chain: ETPGESAEEVTIRVNLIFADGRIQTAEFIGTFELATAEAYAYANLLARDYGEFTADLEDGGYTINIRFVGHHHHHH
Take B19: the Elution rate [%] in [7] amounted to 51%.

B20: FpL_C3KX 7e amino acid substitution mutant Glu34Val (designed binder)
chain: ETPGESAEEVTIRVNLIFADGRIQTAEFIGTFEVATAEAYAYANLLARDYGEFTADLEDGGYTINIRFVGHHHHHH
Molecule B20 registered an Elution rate [%] in [7] of 29%.

B21: FpL_C3KX 7e amino acid substitution mutant Glu34Phe (designed binder)
chain: ETPGESAEEVTIRVNLIFADGRIQTAEFIGTFEFATAEAYAYANLLARDYGEFTADLEDGGYTINIRFVGHHHHHH
In the case of B21, the Elution rate [%] in experiment [7] came out at 64%.

B22: FpL_C3KX 6a (designed binder)
chain: ETPGEPAEEVTIRVNLIFADGRIQTAEFIGTFEEATARAYAYANLLARDYGDFTADLEDGGYTINIRFAGHHHHHH
B22: the Elution rate [%] in [9] came to 25%.

B23: FpL_C3 2a (designed binder)
chain: ETPEEPKEEVTIKVNLIFADGKIQTAEFKGTFEEATAKAYAYANLLAKEYGGYTADLEDGGNTINIKFAGHHHHHH
For the molecule B23, the Antibody-binding activity (absorbance) (absorbance (450 nm)) in [8] came to 0.72.

B24: FpL_C3KX 7e amino acid substitution mutant Glu34Asp (designed binder)
chain: ETPGESAEEVTIRVNLIFADGRIQTAEFIGTFEDATAEAYAYANLLARDYGEFTADLEDGGYTINIRFVGHHHHHH
B24 came in with an Elution rate [%] in experiment [7] of 46%.

B25: FpL_C3 N62Y (designed binder)
chain: ETPEEPKEEVTIKVNLIFADGKIQTAEFKGTFEEATAKAYAYANLLAKENGEYTADLEDGGYTINIKFAGHHHHHH
With B25, the Elution pH in [5] worked out at 3 pH.

B26: FpL_C3KX 4h (designed binder)
chain: ETPEEPAEEVTIRVNLIFADGQIQTAEFIGTFEEATARAYAYANLLARDYGGYTADLEDGGYTINIRFAGHHHHHH
As for B26, the Polyclonal antibody-binding activity (abs@450 nm) in experiment [1] came out at 0.63 abs@450 nm; in [2], 0.56 abs@450 nm; in experiment [3], 0.69 abs@450 nm; in experiment [4] it was 0.62 abs@450 nm.

B27: FpL_C3 G21R (designed binder)
chain: ETPEEPKEEVTIKVNLIFADRKIQTAEFKGTFEEATAKAYAYANLLAKENGEYTADLEDGGNTINIKFAGHHHHHH
Molecule B27 came in with an Elution pH in experiment [5] of 3.4 pH.

B28: FpL_C3 N62H (designed binder)
chain: ETPEEPKEEVTIKVNLIFADGKIQTAEFKGTFEEATAKAYAYANLLAKENGEYTADLEDGGHTINIKFAGHHHHHH
As to B28, the Elution pH in experiment [5] was determined as 3 pH.

B29: FpL_C3 N62W (designed binder)
chain: ETPEEPKEEVTIKVNLIFADGKIQTAEFKGTFEEATAKAYAYANLLAKENGEYTADLEDGGWTINIKFAGHHHHHH
B29 yielded an Elution pH in experiment [5] of 3 pH.

B30: FpL_C3 5d (designed binder)
chain: ETPEEPKEEVTIKVNLIFADGKIQTAEFKGTFEEATAKAYAYAGLLAKVSGVYTADLEDGGYTINIKFAGHHHHHH
Molecule B30 registered an Antibody-binding activity (absorbance) (absorbance (450 nm)) in experiment [8] of 0.46.

B31: FpL_C3 N62R (designed binder)
chain: ETPEEPKEEVTIKVNLIFADGKIQTAEFKGTFEEATAKAYAYANLLAKENGEYTADLEDGGRTINIKFAGHHHHHH
On to B31, for which the Elution pH in [5] is 3 pH.

B32: FpL_C3 5c (designed binder)
chain: ETPEEPKEEVTIKVNLIFADGKIQTAEFKGTFEEATAKAYAYAGLLAKVYGVYTADLEDGGYTINIKFAGHHHHHH
Regarding B32, the Antibody-binding activity (absorbance) (absorbance (450 nm)) in experiment [8] is 0.74.

B33: FpL_C3 G51V (designed binder)
chain: ETPEEPKEEVTIKVNLIFADGKIQTAEFKGTFEEATAKAYAYANLLAKENVEYTADLEDGGNTINIKFAGHHHHHH
On to B33, for which the Elution pH in [5] was found to be 3.4 pH.

Source of the values: US20250002543A1.
